Data from US20240358834A1 (University of Pennsylvania, published 2024).

Molecular target: T1, human CD19 protein with a biotinylated AviTag (Acrobiosystems) (human, UniProt P15391 20-291, biotinylated AviTag)
T1 construct: Captured on streptavidin-coated microplate wells; also called biotinylated-AviTag-CD19; hCD19; not shown: AviTag
T1 sequence (looked up): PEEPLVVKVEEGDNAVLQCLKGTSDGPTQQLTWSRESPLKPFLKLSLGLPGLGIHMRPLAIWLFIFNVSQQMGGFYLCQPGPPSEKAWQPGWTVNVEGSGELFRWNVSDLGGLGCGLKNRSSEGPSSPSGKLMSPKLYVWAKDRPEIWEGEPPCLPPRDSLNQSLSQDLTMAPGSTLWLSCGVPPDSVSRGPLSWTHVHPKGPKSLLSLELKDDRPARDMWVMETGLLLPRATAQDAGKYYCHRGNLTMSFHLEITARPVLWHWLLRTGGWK
Assay: phage ELISA, biotinylated AviTag CD19 on streptavidin wells; signal ratio to FMC63 standard
Excerpt: To identify unique human CD19-binding monoclonal scFv from the panned libraries, individual phage antibody clones were expanded, assessed for binding to CD19 by ELISA, and subjected to nucleotide sequencing to identify those clones that were unique. A total of 84 scFvs were randomly selected from the panned libraries (70 from P3 and 14 from P4).

B1: scFv 9 (scFv)
scFv: QPVLTQPPSVSAALGQRVTLSCTGSKTNIGSGYDVQWYQQFPGKSPKTIIYGNSNRFSGVPARFSGSKSGSIATLTITGIQAEDEADYYCQSFDDNVDGYVFGSGTQLTILGGGSSRSSSSGGGGSGGGGEVQLVESGGDLVKPGGSLRLSCVASGFTFSSDSIHWVRQAPGKGLQWVAYINSGGSTTYYADAVKGRFTISRDNARNTVYLKMNSLRAEDTAVYYCAKDSGFGSWYLESWGQGTLVTVSPASTTAPSVTSGQAGQHHHHHHGAYPYDVPDYAS
notes: Canine scFv (VL-linker-VH); also called scFv_09; P3-41
ELISA hCD19 (ratio FMC63): 0.71 ratio to FMC63
